# From patent US10513547B2, “Peptides and combination of peptides and scaffolds thereof for use in immunotherapy against colorectal carcinoma (CRC) and other cancers” (Immatics Biotechnologies GmbH, priority 2015, dated 2019)
# Target: HLA-A*02:01 (Homo sapiens, UniProt P04439, D140Y/D185E/D98H/E176V/E277Q/G131W/G231S/I119V/I121R/I166T/I218V/L300P/L318F/N151K/N90K/P208A/P217A/Q86G/Q94H/R138H/R169H/T345S)
# Test: MHC binding assay (UV-ligand exchange, beta2m ELISA, peptide exchange yield)
# Details: binding to HLA-A*02:01
# Excerpt: Candidate peptides for T cell based therapies according to the present invention were further tested for their MHC binding capacity (affinity). The individual peptide-MHC complexes were produced by UV-ligand exchange, where a UV-sensitive peptide is cleaved upon UV-irradiation, and exchanged with the peptide of interest as analyzed. Only peptide candidates that can effectively bind and stabilize the peptide-receptive MHC molecules prevent dissociation of the MHC complexes. To determine the yield of the exchange reaction, an ELISA was performed based on the detection of the light chain ([…]) of stabilized MHC complexes. The assay was performed as generally described in Rodenko et al. (Rodenko et al., 2006).
# 96 well MAXISorp plates (NUNC) were coated over night with 2 ug/ml streptavidin in PBS at room temperature, washed 4× and blocked for 1 h at 37° C. in 2% BSA containing blocking buffer. Refolded HLA-A*02:01/MLA-001 monomers served as standards, covering the range of 15-500 ng/ml. Peptide-MHC monomers of the UV-exchange reaction were diluted 100 fold in blocking buffer. Samples were incubated for 1 h at 37° C., washed four times, incubated with 2 ug/ml HRP conjugated anti-β2m for 1 h at 37° C., washed again and detected with TMB solution that is stopped with […]. Absorption was measured at 450 nm. Candidate peptides that show a high exchange yield (preferably higher than 50%, most preferred higher than 75%) are generally preferred for a generation and production of antibodies or fragments thereof, and/or T cell receptors or fragments thereof, as they show sufficient avidity to the MHC molecules and prevent dissociation of the MHC complexes.
row,"Peptide exchange (MHC class I binding score, peptide exchange yield)",Substance
1,“+++” (≥50 = +++),172 (LLLDTVTMQV; listed as Homo sapiens) [compound 172]
2,“+++” (≥50 = +++),161 (FLKNELDNV; listed as Homo sapiens) [compound 161]
3,“+++” (≥50 = +++),143 (KLSDVWKEL; listed as Homo sapiens) [compound 143]
4,“++++” (≥75% = ++++),165 (RLLDFPEAMVL; listed as Homo sapiens) [compound 165]
5,“+++” (≥50 = +++),187 (GLHNVVYGI; listed as Homo sapiens) [compound 187]
6,“++” (≥20% = ++),146 (ALSDETWGL; listed as Homo sapiens) [compound 146]
7,“+++” (≥50 = +++),184 (SLLDENNVSSYL; listed as Homo sapiens) [compound 184]
8,“+++” (≥50 = +++),186 (KMSEKILLL; listed as Homo sapiens) [compound 186]
9,“+++” (≥50 = +++),169 (YLAHFIEGL; listed as Homo sapiens) [compound 169]
10,“+++” (≥50 = +++),144 (LLNDRIWLA; listed as Homo sapiens) [compound 144]
11,“+++” (≥50 = +++),175 (TLLGGKEAQALGV; listed as Homo sapiens) [compound 175]
12,“+++” (≥50 = +++),149 (YQFDKVGILTL; listed as Homo sapiens) [compound 149]
13,“++” (≥20% = ++),135 (KLQEEIPVL; listed as Homo sapiens) [compound 135]
14,“++++″ (≥75% = ++++),191 (QLFSEIHNL; listed as Homo sapiens) [compound 191]
15,“+++” (≥50 = +++),138 (KQFEGTVEI; listed as Homo sapiens) [compound 138]
16,“+++” (≥50 = +++),157 (SLIERDLKL; listed as Homo sapiens) [compound 157]
17,“++” (≥20% = ++),176 (RTLDKVLEV; listed as Homo sapiens) [compound 176]
18,“+++” (≥50 = +++),181 (NLFDLGGQYLRV; listed as Homo sapiens) [compound 181]
19,“+++” (≥50 = +++),170 (ALAGGITMV; listed as Homo sapiens) [compound 170]
20,“+++” (≥50 = +++),168 (GLIRFPLMTI; listed as Homo sapiens) [compound 168]
21,“+++” (≥50 = +++),173 (KLGDLMVLL; listed as Homo sapiens) [compound 173]
22,“+++” (≥50 = +++),183 (TLQEVVTGV; listed as Homo sapiens) [compound 183]
23,“+++” (≥50 = +++),190 (AMAEMVLQV; listed as Homo sapiens) [compound 190]

# More lines, now with the values behind:
row,Substance,"Peptide exchange (MHC class I binding score, peptide exchange yield)"
1,104 (ILLTIKDDTIYL; listed as Homo sapiens) [compound 104],“+++” (≥50 = +++)
2,83 (LTIEDGIFEV; listed as Homo sapiens) [compound 83],“+++” (≥50 = +++)
3,20 (YLKDGDVML; listed as Homo sapiens) [compound 20],“+++” (≥50 = +++)
4,27 (LLADEDSSYL; listed as Homo sapiens) [compound 27],“++” (≥20% = ++)
5,15 (LQLDKEFQL; listed as Homo sapiens) [compound 15],“+++” (≥50 = +++)
6,35 (KLLDLTVRI; listed as Homo sapiens) [compound 35],“+++” (≥50 = +++)
7,105 (YALDLSTFL; listed as Homo sapiens) [compound 105],“+++” (≥50 = +++)
8,56 (VLFTDEGVPKFL; listed as Homo sapiens) [compound 56],“++” (≥20% = ++)
9,54 (ALLNGEYLLAA; listed as Homo sapiens) [compound 54],“+++” (≥50 = +++)
10,87 (LLFDAPDLRL; listed as Homo sapiens) [compound 87],“+++” (≥50 = +++)
11,53 (FLLGSEIKL; listed as Homo sapiens) [compound 53],“+++” (≥50 = +++)
12,76 (YLIGEKQHYL; listed as Homo sapiens) [compound 76],“+++” (≥50 = +++)
13,24 (VLDGVLMEL; listed as Homo sapiens) [compound 24],“+++” (≥50 = +++)
14,45 (ALAELLHGA; listed as Homo sapiens) [compound 45],“+++” (≥50 = +++)
15,93 (SLQELRLLL; listed as Homo sapiens) [compound 93],“++++” (≥75% = ++++)
16,23 (FLDANGHFV; listed as Homo sapiens) [compound 23],“+++” (≥50 = +++)
17,119 (ILYQTVTGL; listed as Homo sapiens) [compound 119],“++” (≥20% = ++)
18,77 (SLLKRDFGA; listed as Homo sapiens) [compound 77],“++” (≥20% = ++)
19,85 (ILHDINSDGVL; listed as Homo sapiens) [compound 85],“++” (≥20% = ++)

row,Substance,"Peptide exchange (MHC class I binding score, peptide exchange yield)"
1,14 (FLDKPEDVLL; listed as Homo sapiens) [compound 14],“++” (≥20% = ++)
2,113 (ILYDLQQNL; listed as Homo sapiens) [compound 113],“++” (≥20% = ++)
3,131 (KLLDVVHPA; listed as Homo sapiens) [compound 131],“++” (≥20% = ++)
4,69 (GMLNEAEGKAIKL; listed as Homo sapiens) [compound 69],“++” (≥20% = ++)
5,90 (GLLKPGLNVVL; listed as Homo sapiens) [compound 90],“+++” (≥50 = +++)
6,4 (RLAELTVDEFL; listed as Homo sapiens) [compound 4],“+++” (≥50 = +++)
7,43 (TLDAAQPRV; listed as Homo sapiens) [compound 43],“++” (≥20% = ++)
8,58 (AMADKMDMSL; listed as Homo sapiens) [compound 58],“++” (≥20% = ++)
9,129 (VLIDVLKEL; listed as Homo sapiens) [compound 129],“+++” (≥50 = +++)
10,101 (GLSEGHTFQV; listed as Homo sapiens) [compound 101],“+++” (≥50 = +++)
11,128 (MLDDRAYLV; listed as Homo sapiens) [compound 128],“++” (≥20% = ++)
12,72 (YLLDYPNNLL; listed as Homo sapiens) [compound 72],“+++” (≥50 = +++)
13,91 (TVDVATPSV; listed as Homo sapiens) [compound 91],“+++” (≥50 = +++)
14,92 (WIDDTSAFV; listed as Homo sapiens) [compound 92],“+++” (≥50 = +++)
15,103 (FLFGYPKRL; listed as Homo sapiens) [compound 103],“++” (≥20% = ++)
16,112 (KLGQVLIYL; listed as Homo sapiens) [compound 112],“++” (≥20% = ++)
17,60 (VLDEDEPRFL; listed as Homo sapiens) [compound 60],“++” (≥20% = ++)
18,41 (ILDDSFKLL; listed as Homo sapiens) [compound 41],“++” (≥20% = ++)
19,79 (SLAADQLLKL; listed as Homo sapiens) [compound 79],“++” (≥20% = ++)
